Measurements: patent US11618906B2, “Hydroxylation techniques” (HYPHA DISCOVERY LTD., priority 2018, dated 2023)
Positions count from the first letter of the chain named. In names and notes the source's numbering stands.

Tests used:
Type in all cases: biochemical
[1] = Hydroxylation of diclofenac catalysed by cytochrome P450 aluC09 and mutants (UPLC-PDA-MS); details: for 4′,5-dihydroxy-diclofenac 1.38 mins / 4′-hydroxy-diclofenac (1) 1.62 mins / 5-hydroxy-diclofenac (2) 1.58 mins / Diclofenac (Substrate) 1.81 mins: % by UV peak area at 275 nm, 0.125 mg/ml substrate, 27° C., 16-20 hours; for Hydroxylated Ratio hydroxy 1:hydroxy 2: ratio of UV peak areas at 275nm
Method: (§1) Lyophilised material of mutants of CYP450aluC09, ferredoxinaluF03 and ferredoxin reductaseSCF15A was made as described in examples 3 and 4 and suspended in water (0.5 mL per vial) and biocatalysis was performed at 27° C. in the following conditions: 50 mM potassium phosphate pH 7.4, 5 mM MgCl2, 0.125 mg/ml substrate compound such as diclofenac (Sigma-Aldrich, UK), Aceclofenac (Tokyo Chemical Industry UK Ltd, UK), Indomethacin (Sigma-Aldrich, UK), Flufenamic acid (Sigma-Aldrich, UK), Napropamide (Sigma-Aldrich, UK), celecoxib (LC Laboratories, USA), valsartan (Tokyo Chemical Industry UK Ltd, UK), ruxolitinib (LC Laboratories, USA), 4-pyrrolidylacetophenone (Sigma-Aldrich, UK), tofacitinib (LC Laboratories, USA), bosentan (CarboSynth Ltd, UK), buparvaquone (MedChemtronica, Sweden), BIRB796 (Stratech Scientific Limited, UK), epothilone B (LC Laboratories, USA), ritonavir (Tokyo Chemical Industry UK Ltd, UK) or tivantinib (MedChemtronica, Sweden), P450AluC09 (concentration as in Table 8), 5 mM G6P, 1 mM NADP, 2 UN/ml G6PDH in a final volume of 100 μL. After 16-20 hours at 200 rpm (5 cm orbital shaker, Kuhner AG, Switzerland), reactions were extracted with an equal volume of acetonitrile, centrifuged to remove precipitated proteins and conversion assessed by UPLC-MS analysis.
(§2) UPLC data was obtained as follows:
(§3) Column: Acquity UPLC BEH Shield RP18 1.7 μm 2.1 mm i.d. 50 mm length
(§4) Solvents: H2O, B: Acetonitrile, both with 0.1% Formic acid
(§5) Detector: Waters Acquity UPLC PDA (UV-Vis detection) and Waters Acquity UPLC QDA (MS)
Illustrative results for the hydroxylation of diclofenac by CYP450aluC09 and selected T291x mutants are summarised below in Table 3 with representative chromatograms resented in FIG. 3a-c; retention times: diclofenac 1.85-1.88 minutes, 5-hydroxydiclofenac 1.60-1.63 minutes, 4′-hydroxydiclofenac 1.65-1.68 minutes, 4′,5-dihydroxydiclofenac 1.40-1.42 minutes. The chromatographic retention times and mass spectra coincided with those of authentic samples.

[2] = Hydroxylation of flufenamic acid catalysed by cytochrome P450 aluC09 and mutants; details: for Flufenamic Acid (Substrate) 1.93 mins / Hydroxy-Flufenamic Acid (1) 1.69 mins / Hydroxy-Flufenamic Acid (2) 1.65 mins: % by UV peak area at 275 nm, 0.125 mg/ml substrate, 27° C., 16-20 hours; for Hydroxylated Ratio 1:2: flufenamic acid, ratio of UV peak areas at 275 nm
Method: as §1, §2, §3, §4, §5
Flufenamic acid elutes at 1.93 minutes, hydroxy-flufenamic acid 1 elutes at 1.68 minutes and hydroxy-flufenamic acid 2 elutes at 1.65 minutes.

[3] = Hydroxylation of aceclofenac catalysed by cytochrome P450 aluC09 and mutants; details: for Aceclofenac (Substrate) (1.80 mins) / Dihydroxy-Aceclofenac (1.42 mins) / Hydroxy-Aceclofenac (1) (1.64 min) / Hydroxy-Aceclofenac (2) (1.60 min): % by UV peak area at 275 nm, 0.125 mg/ml substrate, 27° C., 16-20 hours; for Hydroxylated Ratio 2:1: aceclofenac, ratio of UV peak areas at 275 nm
Method: as §1, §2, §3, §4, §5
Chromatograms are provided in FIGS. 5a-c; aceclofenac elutes at 1.80 minutes, hydroxy-aceclofenac acid 1 elutes at 1.64 minutes, hydroxy-aceclofenac acid 2 elutes at 1.60 minutes and dihydroxy-aceclofenac elutes at 1.42 minutes.

[4] = O-demethylation of indomethacin catalysed by cytochrome P450 aluC09 and mutants; details: % by UV peak area at 275 nm; 0.125 mg/ml substrate, 27° C., 16-20 hours
Method: as §1, §2, §3, §4, §5

[5] = Metabolism of ritonavir by P450 aluC09 and mutants; details: percent of substrate being converted; 0.125 mg/ml, 27° C., 16-20 hours; [CYP] per enzyme as in Table 8
Method: as §1
(§6) However, of particular note when considering P450 concentration are the results for mutants M12, M20 and M34, as well as the deleterious impact on the range of substrate utility in mutants M39 and M40.

[6] = Metabolism of celecoxib by P450 aluC09 and mutants; details: percent of substrate being converted; 0.125 mg/ml, 27° C., 16-20 hours; [CYP] per enzyme as in Table 8
Method: as §1, §6

[7] = Metabolism of epothilone B by P450 aluC09 and mutants; details: percent of substrate being converted; 0.125 mg/ml, 27° C., 16-20 hours; [CYP] per enzyme as in Table 8
Method: as §1, §6

[8] = Metabolism of BIRB796 by P450 aluC09 and mutants; details: percent of substrate being converted; 0.125 mg/ml, 27° C., 16-20 hours; [CYP] per enzyme as in Table 8
Method: as §1, §6

[9] = Metabolism of bosentan by P450 aluC09 and mutants; details: percent of substrate being converted; 0.125 mg/ml, 27° C., 16-20 hours; [CYP] per enzyme as in Table 8
Method: as §1, §6

[10] = Metabolism of valsartan by P450 aluC09 and mutants; details: percent of substrate being converted; 0.125 mg/ml, 27° C., 16-20 hours; [CYP] per enzyme as in Table 8
Method: as §1, §6

[11] = Metabolism of ruxolitinib by P450 aluC09 and mutants; details: percent of substrate being converted; 0.125 mg/ml, 27° C., 16-20 hours; [CYP] per enzyme as in Table 8
Method: as §1, §6

[12] = Metabolism of 4-pyrrolidylacetophenone by P450 aluC09 and mutants; details: percent of substrate being converted; 0.125 mg/ml, 27° C., 16-20 hours; [CYP] per enzyme as in Table 8
Method: as §1, §6

[13] = Metabolism of tivantinib by P450 aluC09 and mutants; details: percent of substrate being converted; 0.125 mg/ml, 27° C., 16-20 hours; [CYP] per enzyme as in Table 8
Method: as §1, §6

[14] = Metabolism of tofacitinib by P450 aluC09 and mutants; details: percent of substrate being converted; 0.125 mg/ml, 27° C., 16-20 hours; [CYP] per enzyme as in Table 8
Method: as §1, §6

[15] = Hydroxylation / de-N-ethylation of napropamide catalysed by cytochrome P450 aluC09 and mutants
Method: as §1, §2, §3, §4, §5
Napropamide elutes at 1.76 minutes, unidentified metabolite (−2 Da) elutes at 1.90 minutes, desethyl-napropamide elutes at 1.62 minutes, hydroxy-napropamide 1 elutes at 1.53 minutes and hydroxy-napropamide 2 elutes at 1.52 minutes and the desethyl-hydroxy-napropamide product elutes at 1.41 minutes.

[16] = % by UV peak area at 275 nm, 0.125 mg/ml substrate, 27° C., 16-20 hours

B1: aluC09M24: cytochrome P450 aluC09 double mutant T291E, A47I; amino acid sequence SEQ ID NO: 84 (protein, listed as Amycolatopsis lurida)
chain: MTDVEETTATLPLARKCPFSPPPEYERLRRESPVSRVGLPSGQTAWILTRLEDIREMLSSPHFSSDRQSPSFPLMVARQIRREDKPFRPSLIAMDPPEHSRARRDVVGEFTVKRMKALQPRIQQIVDEHLDALLAGPKPADLVQALSLPVPSLVICELLGVPYSDHEFFQSCSSRMLSREVTAEERMTAFEQLENYLDELVTKKEANATEDDLLGRQILKQRETGEADHGELVGLAFLLLIAGHETTANMISLGTVTLLENPDQLAKIKADPGKTLAAIEELLRVFTIAEEATSRFATADVEIGGTLIRAGEGVVGLSNAGNHDPDGFENPDTFDIERGARHHVAFGFGVHQCLGQNLARLELQIVFDTLFRRVPGLRIAVPVDELPFKHDSTIYGLHALPVTW
- 4′,5-dihydroxy-diclofenac 1.38 mins [1]: 1.8%
- 4′-hydroxy-diclofenac (1) 1.62 mins [1]: 34.2%
- 5-hydroxy-diclofenac (2) 1.58 mins [1]: 8.0%
- Diclofenac (Substrate) 1.81 mins [1]: 57.0%
- regioselectivity of hydroxylation (product ratio 4′-hydroxydiclofenac : 5-hydroxydiclofenac) ([1]; diclofenac): over four-fold
- Hydroxylated Ratio hydroxy 1:hydroxy 2 ([1]; diclofenac): 4.3
- Flufenamic Acid (Substrate) 1.93 mins [2]: 89.2%
- Hydroxy-Flufenamic Acid (1) 1.69 mins [2]: 7.7%
- Hydroxy-Flufenamic Acid (2) 1.65 mins [2]: 3.1%
- Hydroxylated Ratio 1:2 [2]: 2.5
- Aceclofenac (Substrate) (1.80 mins) [3]: 63.4%
- Dihydroxy-Aceclofenac (1.42 mins) [3]: 5.0%
- Hydroxy-Aceclofenac (1) (1.64 min) [3]: 14.3%
- Hydroxy-Aceclofenac (2) (1.60 min) [3]: 17.4%
- Hydroxylated Ratio 2:1 [3]: 1.2
- Indomethacin (1.74 mins) [4]: 94.2%
- O-demethyl-Indomethacin (1.52 mins) [4]: 5.8%
- % conversions (avg) Ritonavir [5]: 30.4%
- % conversions (avg) Celecoxib [6]: 3.6%
- % conversions (avg) Epothilone B [7]: 52.3%
- % conversions (avg) BIRB796 [8]: 18.9%
- % conversions (avg) Bosentan [9]: 100%
- % conversions (avg) Valsartan [10]: 21.2%
- % conversions (avg) Ruxolitinib [11]: 37.7%
- % conversions (avg) 4-pyrrolidylacetophenone [12]: 7.6%
- % conversions (avg) Tivantinib [13]: 6.8%
- % conversions (avg) Tofacitinib [14]: 0%

B2: aluC09M30: cytochrome P450 aluC09 double mutant T291E, V315L; amino acid sequence SEQ ID NO: 108 (protein, listed as Amycolatopsis lurida)
chain: B1 chain with I47A, V315L
- 4′,5-dihydroxy-diclofenac 1.38 mins [1]: 3.6%
- 4′-hydroxy-diclofenac (1) 1.62 mins [1]: 43.4%
- 5-hydroxy-diclofenac (2) 1.58 mins [1]: 13.0%
- Diclofenac (Substrate) 1.81 mins [1]: 41.6%
- Hydroxylated Ratio hydroxy 1:hydroxy 2 ([1]; diclofenac): 3.3
- Flufenamic Acid (Substrate) 1.93 mins [2]: 93.8%
- Hydroxy-Flufenamic Acid (1) 1.69 mins [2]: 3.7%
- Hydroxy-Flufenamic Acid (2) 1.65 mins [2]: 2.4%
- Hydroxylated Ratio 1:2 [2]: 1.5
- Aceclofenac (Substrate) (1.80 mins) [3]: 24.1%
- Dihydroxy-Aceclofenac (1.42 mins) [3]: 18.4%
- Hydroxy-Aceclofenac (1) (1.64 min) [3]: 15.0%
- Hydroxy-Aceclofenac (2) (1.60 min) [3]: 42.5%
- Hydroxylated Ratio 2:1 [3]: 2.8
- Indomethacin (1.74 mins) [4]: 90.1%
- O-demethyl-Indomethacin (1.52 mins) [4]: 9.9%
- % conversions (avg) Ritonavir [5]: 20.9%
- % conversions (avg) Celecoxib [6]: 3.9%
- % conversions (avg) Epothilone B [7]: 32.2%
- % conversions (avg) BIRB796 [8]: 18%
- % conversions (avg) Bosentan [9]: 80.4%
- % conversions (avg) Valsartan [10]: 20%
- % conversions (avg) Ruxolitinib [11]: 37.5%
- % conversions (avg) 4-pyrrolidylacetophenone [12]: 16.6%
- % conversions (avg) Tivantinib [13]: 2.7%
- % conversions (avg) Tofacitinib [14]: 0%

B3: aluC09M18: cytochrome P450 aluC09 mutant T291Q; amino acid sequence SEQ ID NO: 20 (protein, listed as Amycolatopsis lurida)
chain: B1 chain with I47A, E291Q
- 4′,5-dihydroxy-diclofenac 1.38 mins [1]: 1.9%
- 4′-hydroxy-diclofenac (1) 1.62 mins [1]: 45.5%
- 5-hydroxy-diclofenac (2) 1.58 mins [1]: 12.3%
- Diclofenac (Substrate) 1.81 mins [1]: 41.6%
- Hydroxylated Ratio hydroxy 1:hydroxy 2 ([1]; diclofenac): 3.7
- Flufenamic Acid (Substrate) 1.93 mins [2]: 86.1%
- Hydroxy-Flufenamic Acid (1) 1.69 mins [2]: 9.1%
- Hydroxy-Flufenamic Acid (2) 1.65 mins [2]: 4.8%
- Hydroxylated Ratio 1:2 [2]: 1.9
- Aceclofenac (Substrate) (1.80 mins) [3]: 10.2%
- Dihydroxy-Aceclofenac (1.42 mins) [3]: 49.1%
- Hydroxy-Aceclofenac (1) (1.64 min) [3]: 5.9%
- Hydroxy-Aceclofenac (2) (1.60 min) [3]: 34.9%
- Hydroxylated Ratio 2:1 [3]: 5.9
- Desethyl Napropamide (1.62 min) [15, 16]: 49.5%
- Desethyl-hydroxy-Napropamide (1.41 min) [15, 16]: 4.1%
- Hydroxy-Napropamide (1) (1.53 min) [15, 16]: 1.4%
- Hydroxy-Napropamide (2), (1.52 min) [15, 16]: 2.5%
- M-2Da (unidentified) (1.89 min) [15, 16]: 5.7%
- Napropamide (substrate) [15, 16]: 38.3%
- Hydroxylated Ratio 2:1 ([15]; napropamide, ratio of UV peak areas): 1.8
- Indomethacin (1.74 mins) [4]: 83.6%
- O-demethyl-Indomethacin (1.52 mins) [4]: 16.4%
- % conversions (avg) Ritonavir [5]: 53.3%
- % conversions (avg) Celecoxib [6]: 3.7%
- % conversions (avg) Epothilone B [7]: 24.8%
- % conversions (avg) BIRB796 [8]: 24.3%
- % conversions (avg) Bosentan [9]: 100%
- % conversions (avg) Valsartan [10]: 27.1%
- % conversions (avg) Ruxolitinib [11]: 38.5%
- % conversions (avg) 4-pyrrolidylacetophenone [12]: 14.1%
- % conversions (avg) Tivantinib [13]: 59.7%
- % conversions (avg) Tofacitinib [14]: 2.2%

B4: aluC09M21: cytochrome P450 aluC09 mutant T291Y; amino acid sequence SEQ ID NO: 32 (protein, listed as Amycolatopsis lurida)
chain: B1 chain with I47A, E291Y
- % conversions (avg) Ritonavir [5]: 28.2%
- % conversions (avg) Celecoxib [6]: 1%
- % conversions (avg) Epothilone B [7]: 33.8%
- % conversions (avg) Bosentan [9]: 59%
- % conversions (avg) Valsartan [10]: 19%
- % conversions (avg) Ruxolitinib [11]: 19%
- % conversions (avg) 4-pyrrolidylacetophenone [12]: 15.8%
- % conversions (avg) Tivantinib [13]: 29.6%
- % conversions (avg) Tofacitinib [14]: 2.7%
